These results are taken from publication PMC9352346, “Arl15 upregulates the TGFβ family signaling by promoting the assembly of the Smad-complex” (eLife, 2022).

For the test, the target named is T1, His-Smad4 (UniProt Q13485 1-552).
T1 construct: Smad4; also called purified His-tagged Smad4; source: E. coli BL21, purified (nickel-nitrilotriacetic acid agarose)
T1 sequence (looked up): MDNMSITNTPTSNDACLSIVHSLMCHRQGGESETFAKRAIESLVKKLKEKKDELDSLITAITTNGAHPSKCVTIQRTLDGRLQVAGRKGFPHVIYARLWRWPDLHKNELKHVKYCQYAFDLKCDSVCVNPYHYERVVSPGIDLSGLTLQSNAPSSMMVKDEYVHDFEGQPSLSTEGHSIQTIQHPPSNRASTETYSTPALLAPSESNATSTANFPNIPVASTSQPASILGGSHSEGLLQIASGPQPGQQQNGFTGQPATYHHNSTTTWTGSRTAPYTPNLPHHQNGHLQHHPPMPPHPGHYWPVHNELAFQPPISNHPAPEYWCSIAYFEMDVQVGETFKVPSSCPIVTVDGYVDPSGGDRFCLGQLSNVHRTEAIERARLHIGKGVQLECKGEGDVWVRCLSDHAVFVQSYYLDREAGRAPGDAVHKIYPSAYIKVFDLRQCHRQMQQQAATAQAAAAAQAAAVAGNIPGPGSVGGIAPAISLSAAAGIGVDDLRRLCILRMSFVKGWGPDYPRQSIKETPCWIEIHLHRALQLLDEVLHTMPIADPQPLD
Description: pull-down; bead-immobilized GST-Arl15-AL incubated with purified His-tagged Smads (His-Smad4, His-Smad2-SE, alone or together); immunoblotted against His-tag. The note with it: both partners purified. A general note: A western blot detects proteins with antibodies after separation by electrophoresis.

B1: His-Smad2-SE (natural protein, UniProt Q15796 1-467, looked up)
chain: MSSILPFTPPVVKRLLGWKKSAGGSGGAGGGEQNGQEEKWCEKAVKSLVKKLKKTGRLDELEKAITTQNCNTKCVTIPSTCSEIWGLSTPNTIDQWDTTGLYSFSEQTRSLDGRLQVSHRKGLPHVIYCRLWRWPDLHSHHELKAIENCEYAFNLKKDEVCVNPYHYQRVETPVLPPVLVPRHTEILTELPPLDDYTHSIPENTNFPAGIEPQSNYIPETPPPGYISEDGETSDQQLNQSMDTGSPAELSPTTLSPVNHSLDLQPVTYSEPAFWCSIAYYELNQRVGETFHASQPSLTVDGFTDPSNSERFCLGLLSNVNRNATVEMTRRHIGRGVRLYYIGGEVFAECLSDSAIFVQSPNCNQRYGWHPATVCKIPPGCNLKIFNNQEFAALLAQSVNQGFEAVYQLTRMCTIRMSFVKGWGAEYRRQTVTSTPCWIELHLNGPLQWLDKVLTQMGSPSVRCSEME
notes: Smad2 with phosphomimetic mutations S465E/S467E; also called His-Smad2 with S465E/S467E mutations; source: E. coli BL21, purified (nickel-nitrilotriacetic acid agarose)
As to B1, the binding result was “binds”.

B2: GST-Arl15-AL (natural protein, human, UniProt Q9NXU5 1-204, looked up)
chain: MSDLRITEAFLYMDYLCFRALCCKGPPPARPEYDLVCIGLTGSGKTSLLSKLCSESPDNVVSTTGFSIKAVPFQNAILNVKELGGLDNIRKYWSRYYQGSQGVIFVLDSASSEDDLEAARNELHSALQHPQLCTLPFLILANHQDKPAARSVQEIKKYFELEPLARGKRWILQPCSLDDMDALKDSFSQLINLLEEKDHEAVRM
notes: Arl15, human, A86L; also called bead-immobilized Arl15-AL; GST-Arl15-A86L; source: E. coli BL21, purified (Glutathione Sepharose 4B)
Consider B2, for which the binding result is “binds”.
